Measured values from the DeepSol protein solubility set.

Test: soluble on expression in E. coli; label from the status in PepcDB or PDB records

Sequence | soluble on expression in E. coli
SGPLRDKVVIFIYWRENDLSIYLDLSGEPISRHGYRLNPWKAPMAETLAAGVIITSEWNPTTPFINPMCGSGTLAIEAALIGTHKIPGLVREDYAFQHIHGYVAETWKTMREMAQQKVLPALPFKIIASDHDQRALDAAKVNAEKAGVDHLIDFVLSDFQDTPVEENQAGVVILNPEYGERLGDEESLVLTYKEIGDFFKQKCGGYKGFVFTGNLELAKRIGLKPKRKIKFFSAKIECRLMQYELYSGTKRVVFKTE | not soluble
SGRLHCTEDPVPEAVGGDMQQLNQLGAQQFSALTEVLFHFLTEQKEVERFLAQLSEFATTNQISLGSLRSIVKSLLLVPNGALKKSLTAKQVQADFITLGLSEEKATYFSEKWKQNTPTLARWAIGQTLMINQLIDMEWKFGVTSGSSELEKVGSIFLQLKLVVKKGNQTKNVYIELTLPQFYSFLHEMERVRTSMECFC | soluble
SIMTVRTTHTEVEVHAGGTVELPCSYQLANDTQPPVISWLKGASPDRSTKVFKGNYNWQGEGLGFVESDSYKESFGDFLGRASVANLAAPTLRLTHVHPQDGGRYWCQVAQWSIRTEFGLDAKSVVLKVTGHTPSNNVHVSTAEVVQVDEGNDITMTCPCTDCANANVTWYTGPTFFENYETGTYQPLANKNQFGITWFSSEIAGRASFSGARNLVIRAAKITDAGRVWCELATGQGELDADRSSTILKV | soluble
SIPWNLERITPPRYRADEYQPPDGGSLVEVYLLDTSIQSDHREIEGRVMVTDFENVPEEDGTRFHRQASKCDSHGTHLAGVVSGRDAGVAKGASMRSLRVLNCQGKGTVSGTLIGLEFIRKSQLVQPVGPLVVLLPLAGGYSRVLNAACQRLARAGVVLVTAAGNFRDDACLYSPASAPEVITVGATNAQDQPVTLGTLGTNFGRCVDLFAPGEDIIGASSDCSTCFVSQSGTSQAAAHVAGIAAMMLSAEPELTLAELRQRLIHFSAKDVINEAWFPEDQRVLTPNLVAALPPSTHGAGWQLFCRTVWSAHSGPTRMATAIARCAPDEELLSCSSFSRSGKRRGERMEAQGGKLVCRAHNAFGGEGVYAIARCCLLPQAACSVHTAPPAEASMGTRVHCHQQGHVLTGCSSHWEVEDLGTHKPPVLRPRGQPNQCVGHREASIHASCCHAPGLECKVKEHGIPAPQGQVTVACEEGWTLTGCSALPGTSHVLGAYAVDNTCVVRSRDVSTTGSTSEEAVTAVAICCRSRHLAQASQELQ | soluble
SKAWLHQYSVVGRKIPTQEEPEPPIYRLKIFAPNVVNAKSRFWYFLRKLKRVKKSSGEILNISEIFEKKSTQVKNYGIWIRYKSRSDTINMYREYRDVTVNGAVEQMYKDMSGRHRARWSSIWVLKAMPVAAKDCRRSKVTQFHDSKIKFALPHMRPRAPLKKYNTPFKAKRPTTIVQ | soluble
SKEHREIAKKIAQKSMVLLKNENILPFTPQEKIALVGPGAQSQDILGAWSWQGKKEEAISLVAGAQKLTTNLLVAQEPFDYFEPTAAAIEEALTLASQADKVVVALGETDWMSGEAASRSDIRLPEKQLAVVAQIIEKNPNVVVTVYSGRPLDLQGIDVAKGIVQAWQPGTEGGNALAEILWGQYNPSGRLSMSFPETVGQVPIFYNVDNTGRPYESAPEEKYVSKYLDVSNYAKYPFGFGLSYSHF | not soluble
SKEIDISCVKIEQVIGAGEFGEVCSGHLKLPGKREIFVAIKTLKSGYTEKQRRDFLSEASIMGQFDHPNVIHLEGVVTKSTPVMIITEFMENGSLDSFLRQNDGQFTVIQLVGMLRGIAAGMKYLADMNYVHRALAARNILVNSNLVCKVSDFGLSRFLEDDTSDPTYTSALGGKIPIRWTAPEAIQYRKFTSASDVWSYGIVMWEVMSYGERPYWDMTNQDVINAIEQDYRLPPPMDCPSALHQLMLDCWQKDRNHRPKFGQIVNTLDKMIRNPNSLKAMAPLSS | soluble
SKHKQSSFTKSCYPRGTLSQAVDALYIKAAWLKATIPEDRIKNIRLLKKKTKKQFMKNCQFQEQLLSFFMEDVFGQLQLQGCKKIRFVEDFHSLRQKLSHCISCASSAREMKSITRMKRIFYRIGNKGIYKAISELDILLSWIKKLLESSQ | soluble
SKRAATLTDIKHIKQLDLSDHKSLEFARDIFLFSFYMRGMSFIDLAYLRKKDLNSGFVSYSRRKTGKKLIIRWEKQMQEIIDRYGDSETQYLLPIIEREDGTEHRQYRNKMLLVNRKLKKIAARAGLTTPLTMYVARHSWASIAKTKNISIGIISEAMGHDSETTTQIYLSSIQTNQIDNANRN | not soluble
